This is an account of results in paper PMC5934628.

Like-named read-outs stand apart in the source and are kept apart here.

Holding throughout (assay): EMSA
Background: A gel shift assay detects complexes by their altered migration in electrophoresis.

In series [1] the target is T1, VAL1-B3 wt (C-terminal His6) (Arabidopsis thaliana, UniProt Q8W4L5 288-397).
T1 sequence: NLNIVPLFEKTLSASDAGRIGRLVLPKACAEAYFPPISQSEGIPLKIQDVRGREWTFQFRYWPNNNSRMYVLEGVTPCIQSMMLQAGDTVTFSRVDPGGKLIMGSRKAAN

For series [2], the target named is T1, VAL1-B3 wt (C-terminal His6). This is another data set of the same source.
Series [3] shares this target. The source holds these as a separate data set.
The target in the next series is T2, VAL1-B3 I307A (Arabidopsis thaliana, UniProt Q8W4L5 288-397, I307A).
T2 sequence: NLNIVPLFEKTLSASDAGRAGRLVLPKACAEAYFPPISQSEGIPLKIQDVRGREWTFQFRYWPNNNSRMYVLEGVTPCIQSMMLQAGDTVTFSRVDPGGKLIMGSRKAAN

In another series the target is T3, VAL1-B3 N352A (Arabidopsis thaliana, UniProt Q8W4L5 288-397, N352A).
T3 sequence: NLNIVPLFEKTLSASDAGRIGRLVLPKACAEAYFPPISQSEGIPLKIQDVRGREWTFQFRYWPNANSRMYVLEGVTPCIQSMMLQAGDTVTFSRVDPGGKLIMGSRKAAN

In the next series the target is T4, VAL1-B3 R306A (Arabidopsis thaliana, UniProt Q8W4L5 288-397, R306A).
T4 sequence: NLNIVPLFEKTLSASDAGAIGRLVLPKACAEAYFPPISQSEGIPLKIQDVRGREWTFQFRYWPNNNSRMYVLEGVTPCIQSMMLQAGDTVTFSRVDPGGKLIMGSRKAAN

The target in the next series is T5, VAL1-B3 Q345R (Arabidopsis thaliana, UniProt Q8W4L5 288-397, Q345R).
T5 sequence: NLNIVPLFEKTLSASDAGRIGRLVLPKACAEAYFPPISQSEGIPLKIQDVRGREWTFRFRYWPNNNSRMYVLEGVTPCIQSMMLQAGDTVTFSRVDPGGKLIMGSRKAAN

B1: 12/12_5A (dsDNA)
DNA 1: CGGTGCAAGGCT
DNA 2: AGCCTTGCACCG
As for B1, the binding result in series [1] was “no binding”.

B2: 12/12SP_2 (dsDNA)
DNA 1: CGCTGCATGCCT
DNA 2: AGGCATGCAGCG
For B2, in series [2], the binding result is given as “binds”.

B3: 12/12_6A (dsDNA)
DNA 1: CGGTGCATAGCT
DNA 2: AGCTATGCACCG
Regarding B3, the binding result in series [1] is on record as “no binding”.

B4: 12/12_6T (dsDNA)
DNA 1: CGGTGCATTGCT
DNA 2: AGCAATGCACCG
On to B4, for which the binding result in series [1] is given as “no binding”.

B5: 12/12_5C (dsDNA)
DNA 1: CGGTGCACGGCT
DNA 2: AGCCGTGCACCG
Regarding B5, in series [1], the binding result is listed as “no binding”.

B6: 12/12_2C (dsDNA)
DNA 1: CGGTCCATGGCT
DNA 2: AGCCATGGACCG
Take B6: in series [1], the binding result is “no binding”.

B7: 12/12_1C (dsDNA)
DNA 1: CGGCGCATGGCT
DNA 2: AGCCATGCGCCG
Turning to B7, the binding result in series [1] is recorded as “no binding”.

B8: 12/12_3A (dsDNA)
DNA 1: CGGTGAATGGCT
DNA 2: AGCCATTCACCG
For the molecule B8, in series [1], the binding result was “no binding”.

B9: 12/12_2A (dsDNA)
DNA 1: CGGTACATGGCT
DNA 2: AGCCATGTACCG
With B9, the binding result in series [1] is recorded as “no binding”.

B10: 12/12SP (dsDNA)
DNA 1: CGGTGCATGGCT
DNA 2: AGCCATGCACCG
On to B10, for which the Kd (usually the constant that tells how readily two partners part at equilibrium) in series [3] is roughly 3000 nM. For the same molecule, the binding result with VAL1-B3 I307A is on record as “binds”; in the series with VAL1-B3 N352A, “binds”; with VAL1-B3 R306A, “no binding”; with VAL1-B3 Q345R it was “binds”.

B11: 12/12_3T (dsDNA)
DNA 1: CGGTGTATGGCT
DNA 2: AGCCATACACCG
In the case of B11, in series [1], the binding result is listed as “no binding”.

B12: 12/12_4T (dsDNA)
DNA 1: CGGTGCTTGGCT
DNA 2: AGCCAAGCACCG
For B12, in series [1], the binding result is listed as “no binding”.

B13: 12/12_2T (dsDNA)
DNA 1: CGGTTCATGGCT
DNA 2: AGCCATGAACCG
B13: the binding result in series [1] is listed as “no binding”.

B14: 12/12_6C (dsDNA)
DNA 1: CGGTGCATCGCT
DNA 2: AGCGATGCACCG
Consider B14, for which the binding result in series [1] is on record as “no binding”.

B15: 12/12_1A (dsDNA)
DNA 1: CGGAGCATGGCT
DNA 2: AGCCATGCTCCG
With B15, the binding result in series [1] was “no binding”.
